Source: patent US20250019402A1 (MEDIZINISCHE UNIVERSITAT INNSBRUCK, published 2025)
[ ]: non-standard residue; d: D form. The star is where a group is joined. DOTA = O=C(O)CN1CCN(CC(=O)O)CCN(CC(=O)*)CCN(CC(=O)O)CC1; 1Nal = N[C@@H](Cc1cccc2ccccc12)C(=O)O; 2Nal = N[C@@H](Cc1ccc2ccccc2c1)C(=O)O; NMeF = CN[C@@H](Cc1ccccc1)C(=O)O; NMeNle = CCCC[C@H](NC)C(=O)O; HYNIC = NNc1ccc(C(=O)*)cn1

T1: human cholecystokinin-2 receptor (CCK2R) (human, UniProt P32239 1-447)
T1 sequence (looked up): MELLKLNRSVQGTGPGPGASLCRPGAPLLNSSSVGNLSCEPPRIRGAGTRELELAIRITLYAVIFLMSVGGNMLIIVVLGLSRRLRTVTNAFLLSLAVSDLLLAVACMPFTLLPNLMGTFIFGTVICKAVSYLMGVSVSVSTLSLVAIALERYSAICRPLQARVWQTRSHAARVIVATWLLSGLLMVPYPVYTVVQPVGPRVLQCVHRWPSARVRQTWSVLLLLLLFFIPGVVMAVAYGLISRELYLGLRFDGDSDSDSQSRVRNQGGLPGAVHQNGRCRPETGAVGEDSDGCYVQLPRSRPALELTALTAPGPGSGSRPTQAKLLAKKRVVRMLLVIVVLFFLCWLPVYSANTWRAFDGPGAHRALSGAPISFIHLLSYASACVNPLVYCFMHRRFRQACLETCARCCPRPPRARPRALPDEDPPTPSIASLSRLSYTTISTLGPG


Biological target: T1, human cholecystokinin-2 receptor (CCK2R)
Assay: cell-based or functional assay

| cellular internalization after 2 h incubation on A431-CCK2R cells (% of total activity) [%] | cell uptake after 2 h incubation on A431-CCK2R cells (% of total activity) [%] | Molecule |
| --- | --- | --- |
| 29 | – | ^111In-DOTA-MG11 (peptide) |
| – | 54 | {DOTA}-[dE]AYGW[NMeNle]D[1Nal]-NH2 (also: DOTA coordinating 68Ga) [^68Ga-DOTA-MGS5] |
| – | 68 | {DOTA}-[dE]AYGW[NMeNle]D[1Nal]-NH2 (also: DOTA coordinating 111In) [^111In-DOTA-MGS5] |
| – | 45 | {DOTA}-[dE]AYGW[NMeNle]D[2Nal]-NH2 (also: DOTA coordinating 111In) [^111In-DOTA-MGS5-2] |
| ~40 | – | {DOTA}-[dE]AYPW[NMeNle]D[1Nal]-NH2 (also: DOTA coordinating 68Ga) [^68Ga-DOTA-MGS12] |
| – | 63 | {DOTA}-[dE]AYGW[NMeNle]D[1Nal]-NH2 (also: DOTA coordinating 177Lu) [^177Lu-DOTA-MGS5] |
| – | 63 | {HYNIC}-[dE]AYGW[NMeNle]D[1Nal]-NH2 (also: HYNIC coordinating 99mTc, co-ligand not given here) [^99mTc-HYNIC-MGS5] |
| < 24 | – | {DOTA}-[dE][dE][dE][dE][dE][dE]AYGWMDF-NH2 (also: DOTA coordinating 111In) [^111In-PP-F11] |
| – | < 30 | {DOTA}-[dE][dE][dE][dE][dE][dE]AYGWMDF-NH2 (also: DOTA coordinating 177Lu) [^177Lu-PP-F11] |
| > 50 | – | {DOTA}-[dE]YPGW[NMeNle]D[1Nal]-NH2 (also: DOTA coordinating 177Lu) [^177Lu-DOTA-MGS10] |
| – | 37 | {DOTA}-[dK]AYGW[NMeNle]D[1Nal]-NH2 (also: DOTA coordinating 111In) [^111In-DOTA-MGS9] |

Biological target: human cholecystokinin-2 receptor (CCK2R) (human) (UniProt P32239)
Assay: displacement of [125I]Tyr12-gastrin-I on A431-CCK2R cells, filter plates, 1 h RT

| IC50 [nM] | Molecule |
| --- | --- |
| 0.9 | DOTA-MG11 ([1,4,7,10-tetraazacyclodocecan-1,4,7,10-tetraacetic acid^0, D-Glu^1, DesGlu^2-6] minigastrin) (peptide) |

Biological target: T1, human cholecystokinin-2 receptor (CCK2R)
Assay: as above
Experimental: Affinity for CCK2R was studied in A431 human epidermoid carcinoma cells stably transfected with the plasmid pCR3.1 containing the full coding sequence for the human CCK2R (A431-CCK2R) kindly provided by Dr. Luigi Aloj (Aloj L et al., J Nucl Med 2004, 45:485-494). […] Binding assays were carried out in 96-well filter plates (MultiScreenHTS-FB, Merck Group, Darmstadt, Germany) pretreated with 10 mM TRIS/139 mM NaCl PH 7.4 (2×250 μl). For the assay a number of 200,000-400,000 A431-CCK2R cells per well was prepared in 35mM HEPES buffer pH 7.4 containing 10 mM MgCl₂, 14 μM bacitracin and 0.5% BSA (a hypotonic solution disturbing the integrity of the cell membranes). […] Incubation was interrupted by filtration of the medium and rapid rinsing with ice-cold 10 mM TRIS/139 mM NaCl PH 7.4 (2×200 μl) and the filters were counted in the gamma-counter. Half maximal inhibitory concentration (IC50) values were calculated following nonlinear regression with Origin software (Microcal Origin 6.1, Northampton, MA) and a representative assay was chosen for comparison.

| IC50 [nM] | Molecule |
| --- | --- |
| 1.6 | {DOTA}-[dE]AYGW[NMeNle]D[2Nal]-NH2 (SMILES CCCC[C@@H](C(=O)N[C@@H](CC(=O)O)C(=O)N[C@@H](Cc1ccc2ccccc2c1)C(N)=O)N(C)C(=O)[C@H](Cc1c[nH]c2ccccc12)NC(=O)CNC(=O)[C@H](Cc1ccc(O)cc1)NC(=O)[C@H](C)NC(=O)[C@@H](CCC(=O)O)NC(=O)CN1CCN(CC(=O)O)CCN(CC(=O)O)CCN(CC(=O)O)CC1) [DOTA-MGS5-2 (DOTA-DGlu-Ala-Tyr-Gly-Trp-(N-Me)Nle-Asp-2Nal-NH2)] |
| 1.9 | {DOTA}-[dE]AYGWMD[1Nal]-NH2 [DOTA-MGS1 (DOTA-DGlu-Ala-Tyr-Gly-Trp-Met-Asp-1Nal-NH2)] |
| 1.6 | {DOTA}-[dE]PYGW[NMeNle]D[1Nal]-NH2 (SMILES CCCC[C@@H](C(=O)N[C@@H](CC(=O)O)C(=O)N[C@@H](Cc1cccc2ccccc12)C(N)=O)N(C)C(=O)[C@H](Cc1c[nH]c2ccccc12)NC(=O)CNC(=O)[C@H](Cc1ccc(O)cc1)NC(=O)[C@@H]1CCCN1C(=O)[C@@H](CCC(=O)O)NC(=O)CN1CCN(CC(=O)O)CCN(CC(=O)O)CCN(CC(=O)O)CC1) [DOTA-MGS8 (DOTA-DGlu-Pro-Tyr-Gly-Trp-(N-Me)Nle-Asp-1Nal-NH2)] |
| 1.8 | {DOTA}-[dK]AYGW[NMeNle]D[1Nal]-NH2 (SMILES CCCC[C@@H](C(=O)N[C@@H](CC(=O)O)C(=O)N[C@@H](Cc1cccc2ccccc12)C(N)=O)N(C)C(=O)[C@H](Cc1c[nH]c2ccccc12)NC(=O)CNC(=O)[C@H](Cc1ccc(O)cc1)NC(=O)[C@H](C)NC(=O)[C@@H](CCCCN)NC(=O)CN1CCN(CC(=O)O)CCN(CC(=O)O)CCN(CC(=O)O)CC1) [DOTA-MGS9 (DOTA-DLys-Ala-Tyr-Gly-Trp-(N-Me)Nle-Asp-1Nal-NH2)] |
| 1.2 | {DOTA}-[dE]AYGW[NMeNle]D[NMeF]-NH2 (SMILES CCCC[C@@H](C(=O)N[C@@H](CC(=O)O)C(=O)N(C)[C@@H](Cc1ccccc1)C(N)=O)N(C)C(=O)[C@H](Cc1c[nH]c2ccccc12)NC(=O)CNC(=O)[C@H](Cc1ccc(O)cc1)NC(=O)[C@H](C)NC(=O)[C@@H](CCC(=O)O)NC(=O)CN1CCN(CC(=O)O)CCN(CC(=O)O)CCN(CC(=O)O)CC1) [DOTA-MGS4 (DOTA-DGlu-Ala-Tyr-Gly-Trp-(N-Me)Nle-Asp-(N-Me)Phe-NH2)] |
| 0.9 | {DOTA}-[dE]YPGW[NMeNle]D[1Nal]-NH2 (SMILES CCCC[C@@H](C(=O)N[C@@H](CC(=O)O)C(=O)N[C@@H](Cc1cccc2ccccc12)C(N)=O)N(C)C(=O)[C@H](Cc1c[nH]c2ccccc12)NC(=O)CNC(=O)[C@@H]1CCCN1C(=O)[C@H](Cc1ccc(O)cc1)NC(=O)[C@@H](CCC(=O)O)NC(=O)CN1CCN(CC(=O)O)CCN(CC(=O)O)CCN(CC(=O)O)CC1) [DOTA-MGS10 (DOTA-DGlu-Tyr-Pro-Gly-Trp-(N-Me)Nle-Asp-1Nal-NH2)] |
| 6 | {HYNIC}-[dE]AYGW[NMeNle]D[1Nal]-NH2 [HYNIC-MGS5 (HYNIC-DGlu-Ala-Tyr-Gly-Trp-(N-Me)Nle-Asp-1Nal-NH2)] |

Biological target: serum proteins (fresh human serum) (human)
Assay: incubation in fresh human serum at 37 C (500 pmol/mL), Sephadex G-50 size-exclusion chromatography, gamma counting

| Percentage of radioligand bound to serum proteins after 4 h incubation [%] | Percentage of radioligand bound to serum proteins after 24 h incubation [%] | Molecule |
| --- | --- | --- |
| 8.9 | 11.9 | {DOTA}-[dE]AYGW[NMeNle]D[NMeF]-NH2 (also: DOTA coordinates 111In) [^111In-DOTA-MGS4 (^111In-DOTA-DGlu-Ala-Tyr-Gly-Trp-(N-Me)Nle-Asp-(N-Me)Phe-NH2)] |
| 41 | 44.3 | {DOTA}-[dE]AYGW[NMeNle]D[1Nal]-NH2 (also: DOTA coordinating 111In) [^111In-DOTA-MGS5] |
| 20 | 28.8 | {DOTA}-[dE]AYGWMD[1Nal]-NH2 (also: DOTA coordinates 111In) [^111In-DOTA-MGS1 (^111In-DOTA-DGlu-Ala-Tyr-Gly-Trp-Met-Asp-1Nal-NH2)] |
| 31.7 | 34.6 | {DOTA}-[dE]AYGW[NMeNle]D[2Nal]-NH2 (also: DOTA coordinating 111In) [^111In-DOTA-MGS5-2] |
| 44.5 | 52.8 | {DOTA}-[dE]PYGW[NMeNle]D[1Nal]-NH2 (also: DOTA coordinates 111In) [^111In-DOTA-MGS8] |
| 41.2 | 45.9 | {DOTA}-[dE]AYPW[NMeNle]D[1Nal]-NH2 (also: DOTA coordinates 111In) [^111In-DOTA-MGS12] |
| 56.7 | 53.4 | {DOTA}-[dE]YPGW[NMeNle]D[1Nal]-NH2 (also: DOTA coordinates 111In) [^111In-DOTA-MGS10] |
| 26.6 | 27.8 | {DOTA}-[dK]AYGW[NMeNle]D[1Nal]-NH2 (also: DOTA coordinating 111In) [^111In-DOTA-MGS9] |
